Reference: paper PMC3836487

Target: CFP
Assay: FRET or BRET; acceptor photobleaching FRET in live C. crescentus cells on 1 % agarose pads; YFP (acceptor) bleached for 20 s at 532 nm, increase of CFP (donor) emission recorded; cells grown in M2G, 0.3 % xylose for 1 h; apparent FRET efficiency, above 0.5 % taken as an interaction, above 1 % as a strong one

apparent FRET efficiency: < 0.5%
Substance: YFP
